Reference: the supplement of paper PMC10724198
± gives the standard deviation of the averaged measurements.

Key:
Saccharomyces cerevisiae [1] = assay: protein stability index of tFT-peptide fusion (C-terminal peptide) (PSI (0-1 scale)); higher = more stable (slower turnover)
Description: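 MPS profiling in S. cerevisiae of the tFT-X12 degron library: putative degron peptides plus stable controls, 12 aa, fused to the C-terminus of a sfGFP-mCherry timer. Cells are FACS-sorted into 8 mCherry/sfGFP bins and deep-sequenced. PSI runs from 0 (unstable) to 1 (stable). Backgrounds are wild type, das1Δ and doa10Δ at 30 °C, and wild type, das1Δ, cdc34-1 and cdc53-1 at 37 °C; 2-3 technical replicates each.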

Saccharomyces cerevisiae [2] = assay: as above; settings: genetic background: wild type; temperature: 30 C
[3] = genetic background: cdc34-1, temperature: 37 C
[4] = genetic background: cdc53-1, temperature: 37 C
[5] = genetic background: das1 deletion, temperature: 30 C
[6] = genetic background: das1 deletion, temperature: 37 C
[7] = genetic background: doa10 deletion, temperature: 30 C
[8] = genetic background: wild type, temperature: 30 C
[9] = genetic background: wild type, temperature: 37 C
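Note: PSI is a weighted mean of sequencing reads over stability bins, variants kept only with over 10 reads, mCherry proximal and sfGFP distal, peptide attached via GGGS linker.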

Row | Sequence | protein stability index (Saccharomyces cerevisiae [1]; [3]) | protein stability index (Saccharomyces cerevisiae [1]; [4]) | protein stability index (Saccharomyces cerevisiae [1]; [5]) | protein stability index (Saccharomyces cerevisiae [1]; [6]) | protein stability index (Saccharomyces cerevisiae [1]; [7]) | protein stability index (Saccharomyces cerevisiae [1]; [8]) | protein stability index (Saccharomyces cerevisiae [1]; [9]) | protein stability index (Saccharomyces cerevisiae [2])
1 | RMLSLFFPLRTL | 0.651 ± 0.068 | 0.69994 ± 0.00052 | 0.624 ± 0.02 | 0.724 ± 0.024 | 0.196 ± 0.011 | 0.243 ± 0.048 | 0.4527 ± 0.0036 | 0.395 ± 0.035
2 | RNWVVDGWRRFP | 0.656 ± 0.03 | 0.7425 ± 0.0034 | 0.684 ± 0.019 | 0.73543 ± 0.00011 | 0.17 ± 0.0075 | 0.192 ± 0.039 | 0.525 ± 0.031 | 0.282 ± 0.069
3 | RPCLSALRFRFF | 0.68 ± 0.037 | 0.764 ± 0.029 | 0.655 ± 0.042 | 0.727 ± 0.064 | 0.141 ± 0.023 | 0.162 ± 0.026 | 0.3204 ± 0.00076 | 0.206 ± 0.015
4 | RPHPLHIPRRLA | 0.624 ± 0.054 | 0.6848 ± 0.0035 | 0.684 ± 0.01 | 0.692 ± 0.047 | 0.146 ± 0.011 | 0.216 ± 0.072 | 0.391 ± 0.037 | 0.238 ± 0.028
5 | RQINEKKKLYMI | 0.513 ± 0.029 | 0.673 ± 0.14 | 0.639 ± 0.024 | 0.727 ± 0.041 | 0.1 ± 0.013 | 0.102 ± 0.028 | 0.182 ± 0.029 | 0.215 ± 0.033
6 | RRGLIFFLCCPA | 0.38308 ± 5.8e-05 | 0.4335 ± 0.0019 | 0.336 ± 0.027 | 0.472 ± 0.013 | 0.31 ± 0.0072 | 0.332 ± 0.039 | 0.432 ± 0.011 | 0.466 ± 0.053
7 | RRLYERNKNNKQ | 0.696 ± 0.024 | 0.741 ± 0.049 | 0.611 ± 0.036 | 0.729 ± 0.061 | 0.311 ± 0.019 | 0.387 ± 0.067 | 0.649 ± 0.013 | 0.435 ± 0.072
8 | RRRRGGQSPALR | 0.651 ± 0.049 | 0.674 ± 0.0087 | 0.71 ± 0.032 | 0.6928 ± 0.0059 | 0.735 ± 0.022 | 0.717 ± 0.03 | 0.6636 ± 0.0065 | 0.711 ± 0.015
9 | RRTTIFDTKEPP | 0.561 ± 0.02 | 0.563 ± 0.028 | 0.523 ± 0.062 | 0.5752 ± 0.0014 | 0.532 ± 0.028 | 0.511 ± 0.019 | 0.5689 ± 0.0054 | 0.462 ± 0.017
10 | RRVFPLIIVLLF | 0.115 ± 0.023 | 0.152 ± 0.014 | 0.172 ± 0.031 | 0.279 ± 0.016 | 0.174 ± 0.0077 | 0.126 ± 0.022 | 0.221 ± 0.013 | 0.202 ± 0.0087
11 | RSCKSIRGIFVC | 0.606 ± 0.068 | 0.7199 ± 0.0018 | 0.543 ± 0.018 | 0.719 ± 0.022 | 0.2 ± 0.0066 | 0.229 ± 0.02 | 0.388 ± 0.013 | 0.315 ± 0.027
12 | RSFPCITVFIRA | 0.514 ± 0.011 | 0.469 ± 0.029 | 0.328 ± 0.036 | 0.50913 ± 0.00021 | 0.325 ± 0.03 | 0.323 ± 0.023 | 0.5088 ± 0.0019 | 0.4235 ± 0.0035
13 | RSKWEKLDKIVS | 0.675 ± 0.032 | 0.777 ± 0.045 | 0.629 ± 0.051 | 0.681 ± 0.0091 | 0.314 ± 0.022 | 0.396 ± 0.047 | 0.575 ± 0.018 | 0.455 ± 0.0083
14 | RVCVFVLFGLCF | 0.352 ± 0.041 | 0.401 ± 0.0075 | 0.324 ± 0.04 | 0.48 ± 0.0059 | 0.309 ± 0.0047 | 0.315 ± 0.022 | 0.441 ± 0.0053 | 0.383 ± 0.011
15 | RWGLCFVHVTMF | 0.0369 ± 0.011 | 0.0963 ± 0.011 | 0.149 ± 0.046 | 0.215 ± 0.015 | 0.115 ± 0.01 | 0.106 ± 0.039 | 0.152 ± 0.014 | 0.173 ± 0.011
16 | RWRLWVGWWVVG | 0.4532 ± 0.0039 | 0.587 ± 0.0088 | 0.456 ± 0.022 | 0.601 ± 0.013 | 0.1043 ± 0.00095 | 0.118 ± 0.0076 | 0.142 ± 0.017 | 0.12 ± 0.0055
17 | RYRVRIVVFGLV | 0.407 ± 0.018 | 0.485 ± 0.068 | 0.365 ± 0.015 | 0.59 ± 0.032 | 0.075 ± 0.02 | 0.088 ± 0.046 | 0.0807 ± 0.0076 | 0.14 ± 0.018
18 | SCFCFRVLLCSF | 0.333 ± 0.041 | 0.348 ± 0.0054 | 0.336 ± 0.023 | 0.402 ± 0.019 | 0.325 ± 0.021 | 0.297 ± 0.019 | 0.364 ± 0.0086 | 0.383 ± 0.0064
19 | SCLFMLFPLVSV | 0.475 ± 0.0048 | 0.505 ± 0.015 | 0.421 ± 0.031 | 0.529 ± 0.01 | 0.412 ± 0.0097 | 0.409 ± 0.033 | 0.5013 ± 0.0033 | 0.432 ± 0.0046
20 | SCLLVVVSTSGN | 0.5364 ± 0.0018 | 0.573 ± 0.0061 | 0.404 ± 0.043 | 0.611 ± 0.0019 | 0.374 ± 0.015 | 0.4057 ± 0.002 | 0.588 ± 0.022 | 0.433 ± 0.0062

Row | Sequence | protein stability index (Saccharomyces cerevisiae [1]; [3]) | protein stability index (Saccharomyces cerevisiae [1]; [4]) | protein stability index (Saccharomyces cerevisiae [1]; [5]) | protein stability index (Saccharomyces cerevisiae [1]; [6]) | protein stability index (Saccharomyces cerevisiae [1]; [7]) | protein stability index (Saccharomyces cerevisiae [1]; [8]) | protein stability index (Saccharomyces cerevisiae [1]; [9]) | protein stability index (Saccharomyces cerevisiae [2])
21 | SFFVCVRVFGCC | 0.315 ± 0.012 | 0.369 ± 0.011 | 0.255 ± 0.042 | 0.44 ± 0.0095 | 0.2075 ± 0.0016 | 0.239 ± 0.018 | 0.398 ± 0.011 | 0.337 ± 0.021
22 | SFFWAMSLLCFV | 0.511 ± 0.025 | 0.559 ± 0.012 | 0.443 ± 0.025 | 0.549 ± 0.018 | 0.402 ± 0.022 | 0.414 ± 0.024 | 0.498 ± 0.00077 | 0.455 ± 0.043
23 | SFGLICFLILCG | 0.218 ± 0.0065 | 0.218 ± 0.052 | 0.206 ± 0.03 | 0.372 ± 0.038 | 0.173 ± 0.023 | 0.205 ± 0.014 | 0.301 ± 0.0073 | 0.2964 ± 0.00086
24 | SFIVGYRWNNRN | 0.672 ± 0.018 | 0.738 ± 0.035 | 0.647 ± 0.015 | 0.7542 ± 0.0063 | 0.337 ± 0.033 | 0.378 ± 0.0046 | 0.5776 ± 0.0018 | 0.443 ± 0.047
25 | SFVVVFTFFFGC | 0.272 ± 0.018 | 0.381 ± 0.031 | 0.239 ± 0.032 | 0.408 ± 0.026 | 0.221 ± 0.011 | 0.258 ± 0.036 | 0.377 ± 0.02 | 0.312 ± 0.015
26 | SGFLRFRGLVCY | 0.396 ± 0.016 | 0.445 ± 0.021 | 0.288 ± 0.043 | 0.503 ± 0.0067 | 0.233 ± 0.0028 | 0.278 ± 0.038 | 0.464 ± 0.008 | 0.359 ± 0.019
27 | SGFWVSVDVFFV | 0.0673 ± 0.026 | 0.171 ± 0.022 | 0.155 ± 0.03 | 0.32 ± 0.015 | 0.122 ± 0.012 | 0.136 ± 0.026 | 0.29 ± 0.0036 | 0.2434 ± 0.0016
28 | SGLPLVILFLCL | 0.529 ± 0.0086 | 0.635 ± 0.04 | 0.435 ± 0.028 | 0.625 ± 0.022 | 0.441 ± 0.026 | 0.436 ± 0.019 | 0.576 ± 0.038 | 0.476 ± 0.0088
29 | SGRATSSRTSEP | 0.67 ± 0.035 | 0.72963 ± 0.00027 | 0.661 ± 0.01 | 0.713 ± 0.0042 | 0.662 ± 0.03 | 0.6625 ± 0.0048 | 0.7036 ± 0.0011 | 0.78 ± 0.024
30 | SGWGCRMVVCAG | 0.154 ± 0.026 | 0.192 ± 0.028 | 0.186 ± 0.027 | 0.299 ± 0.011 | 0.152 ± 0.0088 | 0.197 ± 0.029 | 0.265 ± 0.0084 | 0.245 ± 0.0031
31 | SHPAPPSPPPSP | 0.618 ± 0.078 | 0.676 ± 0.0076 | 0.384 ± 0.025 | 0.537 ± 0.014 | 0.363 ± 0.0086 | 0.391 ± 0.025 | 0.534 ± 0.0059 | 0.413 ± 0.0094
32 | SILFSYFCFFLL | 0.523 ± 0.027 | 0.545 ± 0.019 | 0.441 ± 0.031 | 0.586 ± 0.014 | 0.274 ± 0.0065 | 0.273 ± 0.028 | 0.443 ± 0.0077 | 0.356 ± 0.01
33 | SLCPFLCILCFG | 0.327 ± 0.0041 | 0.321 ± 0.036 | 0.28 ± 0.023 | 0.402 ± 0.0015 | 0.245 ± 0.0064 | 0.259 ± 0.021 | 0.347 ± 0.0085 | 0.355 ± 0.009
34 | SLCVVIFFSSIT | 0.301 ± 0.011 | 0.437 ± 0.037 | 0.274 ± 0.031 | 0.468 ± 0.019 | 0.2524 ± 0.0025 | 0.266 ± 0.041 | 0.413 ± 0.0017 | 0.356 ± 0.02
35 | SLPVSPLVRLLA | 0.563 ± 0.017 | 0.599 ± 0.0093 | 0.486 ± 0.026 | 0.611 ± 0.0096 | 0.127 ± 0.015 | 0.138 ± 0.02 | 0.2102 ± 0.0012 | 0.235 ± 0.021
36 | SLRICACMTVSW | 0.3 ± 0.0079 | 0.373 ± 0.013 | 0.404 ± 0.086 | 0.335 ± 0.0069 | 0.366 ± 0.0045 | 0.353 ± 0.012 | 0.29 ± 0.013 | 0.353 ± 0.005
37 | SLSALPRPPRLL | 0.669 ± 0.0078 | 0.713 ± 0.022 | 0.673 ± 0.021 | 0.7323 ± 0.0002 | 0.698 ± 0.027 | 0.677 ± 0.023 | 0.694 ± 0.0087 | 0.614 ± 0.26
38 | SPPHSPSALPPP | 0.674 ± 0.025 | 0.726 ± 0.0086 | 0.656 ± 0.023 | 0.732 ± 0.019 | 0.685 ± 0.022 | 0.669 ± 0.0081 | 0.701 ± 0.0078 | 0.587 ± 0.15
39 | SPWSIHLILLQV | 0.209 ± 0.016 | 0.312 ± 0.0012 | 0.265 ± 0.033 | 0.438 ± 0.018 | 0.1894 ± 0.00096 | 0.203 ± 0.029 | 0.36 ± 0.034 | 0.318 ± 0.025
